According to the supplement of paper PMC10126150:
± gives the standard deviation of the averaged measurements.

test system: ATP; assay: switch fluorescence ratio, 500 uM ATP over buffer (Cy3 cluster intensity, sum of 5 cycles each) (fold (ratio)); higher = stronger signal-on switching upon ATP binding; sequences stand for … in TCGTCGGCAGCGTCAGATGTGTATAAGAGACAGTTTTTTTTTTTTTTTTTTTTTTTTT…TC; conditions: aptamer strand: ATP DNA aptamer (quencher-CACCTGGGGGAGTATTGCGGAGGAAGG + anchor), 100 nM annealed; ATP concentration: 500 uM
Summary of the method: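 Clusters with intensities outside 100-1000 RFU were excluded. The remaining Cy3-labelled switching-strand clusters on a modified Illumina MiSeq flow-cell had been annealed to 100 nM quencher-labelled ATP aptamer and imaged in selection buffer, then after 15 min with 500 uM ATP at 22 °C, for five cycles separated by NaOH stripping and re-annealing. The fluorescence ratio, averaged per switch-domain sequence, is each cluster's summed target-cycle Cy3 intensity over its summed buffer-cycle Cy3 intensity.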
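Further: ATP exposure 15 min at 22 °C before imaging.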

| Sequence | switch fluorescence ratio |
| --- | --- |
| ATTGGTCTCA | 0.975 ± 0.023 |
| TCGCCATTGT | 1.02 ± 0.03 |
| GGTCGTTCGC | 1.01 ± 0.038 |
| TTTTACCCAA | 1.04 ± 0.024 |
| ACGGTGTTAC | 1.11 ± 0.027 |
| GGACATTCGC | 1.04 ± 0.013 |
| CTAGGGCGCT | 0.983 ± 0.032 |
| TTTAAGCATT | 1.19 ± 0.066 |
| ATCGTCGGAT | 0.982 ± 0.022 |
| AGTTAACTGT | 0.996 ± 0.032 |
| GGGGTAGGCC | 0.995 ± 0.018 |
| AGATAGGCGT | 0.9959 ± 0.0056 |
| AACGTAGTTT | 1.02 ± 0.029 |
| TTCGCTTAGG | 0.993 ± 0.026 |
| GGATCCATAC | 1.01 ± 0.014 |
| AGAAAAGGTT | 0.98 ± 0.021 |
| CACTTCGCCA | 2.12 ± 0.17 |
| GTTAGGGCGT | 1.01 ± 0.011 |
| GTGAGTAGGT | 0.974 ± 0.014 |
| TATTTCATTC | 1.03 ± 0.041 |
| CGAAAGGCTA | 1.15 ± 0.18 |
| AGGCCACTCG | 0.978 ± 0.0036 |
| AAGGCTAATG | 0.953 ± 0.011 |
| CGAGCGATGG | 1.94 ± 0.074 |
| CGCTTTATGT | 1.06 ± 0.18 |
| GTTACGGGGT | 0.975 ± 0.024 |

| Sequence | switch fluorescence ratio |
| --- | --- |
| TGGTTGGAGT | 1.006 ± 0.0035 |
| GTGGTTGCGG | 0.987 ± 0.04 |
| TTTCGGGATG | 1.01 ± 0.066 |
| CGGCCCGCCC | 1.27 ± 0.35 |
| TCAGTCATTT | 1.003 ± 0.0066 |
| AAAATGCGAT | 1.01 ± 0.045 |
| TAGGGGATAC | 1.06 ± 0.01 |
| TTTTCTGTGG | 0.994 ± 0.035 |
| CTGCGGGATT | 1.02 ± 0.026 |
| TATTGGGTTT | 0.996 ± 0.022 |
| TGGGCTTATC | 1.012 ± 0.0097 |
| TTATCTGGAT | 1 ± 0.022 |
| GAAACGTAAT | 1.19 ± 0.037 |
| AAGGGATTAG | 1.01 ± 0.037 |
| CAGTGGGGTG | 0.993 ± 0.03 |
| GGTAGGGGGA | 1.02 ± 0.046 |
| TTCTAATGTA | 0.993 ± 0.021 |
| AAGGCCCCGT | 1.02 ± 0.016 |
| AAGGTTCATA | 1.01 ± 0.044 |
| GGATGGTTTC | 1.01 ± 0.023 |
| CAGTCACTTG | 1.01 ± 0.029 |
| TTGGACTAGC | 0.981 ± 0.033 |
| CTTAGGAGGT | 0.987 ± 0.025 |
| CGGGTAAGCC | 0.961 ± 0.027 |
| GTTGTAGCTC | 1 ± 0.023 |
| AGCCAAAATA | 1.04 ± 0.017 |

| Sequence | switch fluorescence ratio |
| --- | --- |
| TAGGTCGCCG | 1 ± 0.044 |
| GGAAAGTCGT | 1.03 ± 0.018 |
| AAGTTATATG | 0.987 ± 0.0099 |
| TGTACGGATT | 1.0016 ± 0.00058 |
| AATCGGATAA | 1.05 ± 0.019 |
| CCGAGTGGGC | 1.09 ± 0.012 |
| GCCAGGGAAA | 0.9958 ± 0.0046 |
| TTATACTGGG | 0.992 ± 0.012 |
| TTGATGGTTG | 0.964 ± 0.021 |
| ACATATTTTA | 1.03 ± 0.016 |
| TTGAAATGGT | 0.987 ± 0.018 |
| TAGCTGAGGA | 1.01 ± 0.032 |
| TTATTAGGGC | 1 ± 0.083 |
| TATCATCTTT | 1.01 ± 0.054 |
| TACGTATAAT | 1.15 ± 0.015 |
| TTGTGATTCT | 0.97032 ± 0.00028 |
| AAAGGAAGG | 0.995 ± 0.013 |
| GGGGCTATCT | 1.33 ± 0.42 |
| TAGCCGGGAC | 1.25 ± 0.26 |
| ATGTTAGGGC | 0.975 ± 0.032 |
| TTTGCTCGCC | 1.01 ± 0.04 |
| TATATGAGAG | 0.973 ± 0.017 |
| AGGAGCTCGG | 0.994 ± 0.013 |
| AGTAATGGGA | 1.06 ± 0.064 |
| TGCATCAGCT | 1.03 ± 0.046 |
| AACATGCTTA | 0.972 ± 0.02 |

| Sequence | switch fluorescence ratio |
| --- | --- |
| ACGCGCGTGT | 1.02 ± 0.017 |
| AACTCAGGCG | 1.039 ± 0.0066 |
| TCCGGAGTTT | 2.55 ± 0.38 |
| TTTTATTGTG | 1 ± 0.027 |
| ATGCCGGGAT | 1.02 ± 0.02 |
| CTATCGATAG | 0.993 ± 0.035 |
| TGCGGTATGG | 1.03 ± 0.017 |
| TTAAGTGCGG | 1 ± 0.02 |
| GCGGGCCTGT | 0.9967 ± 0.0099 |
| CCGAGGGTG | 1.81 ± 0.098 |
| ATGAAAGACG | 1.04 ± 0.075 |
| CTGGGAGTAC | 1.04 ± 0.051 |
| GAAAGAGAGG | 1.003 ± 0.0076 |
| GGTAGACCGC | 0.987 ± 0.053 |
| TAAGGCTAGT | 0.969 ± 0.01 |
| TGAATTCGGG | 1.01 ± 0.064 |
| GGGTAAATAT | 0.98 ± 0.014 |
| AAATAATTGT | 1.019 ± 0.01 |
| CGCAGGGGGT | 1.01 ± 0.039 |
| GGTGTGTTCT | 0.985 ± 0.011 |
| GCCCACTATT | 0.988 ± 0.01 |
| TGGCGGGGGT | 0.981 ± 0.012 |
| GGGGTGGGGT | 1 ± 0.052 |
| TACAGGAGGG | 1.01 ± 0.021 |
| TGATGAATGA | 1.001 ± 0.0021 |
| GGATCATTTA | 1.03 ± 0.042 |

| Sequence | switch fluorescence ratio |
| --- | --- |
| CATTAGTCTC | 1.02 ± 0.053 |
| GTTTTTACTA | 0.998 ± 0.014 |
| AGCGCGTTGT | 1.02 ± 0.044 |
| CATATAATTG | 0.976 ± 0.014 |
| TTCGTCTGCT | 1.02 ± 0.024 |
| TTAAGCAGTT | 0.9853 ± 0.0056 |
| CAAGATTGTT | 1.02 ± 0.017 |
| ACCTGTATGG | 1.03 ± 0.044 |
| GGGTTGGCTC | 0.994 ± 0.041 |
| ATGCTACCAT | 1.05 ± 0.022 |
| TCTAAATGGG | 1.029 ± 0.005 |
| CGGGTATTTG | 1.04 ± 0.028 |
| ATATAGGGTG | 1.09 ± 0.019 |
| CCCGAGCCTC | 1.36 ± 0.1 |
| GCGCGGTGTT | 0.988 ± 0.026 |
| CGGCTCTTAG | 0.99 ± 0.011 |
| GCTGTGCGCA | 1.02 ± 0.019 |
| AGAATATTAG | 0.987 ± 0.037 |
| TTAAGAATTG | 1.04 ± 0.12 |
| CTCCCCCGTC | 1.46 ± 0.37 |
| TCTTTCGGAG | 1.33 ± 0.077 |
| TTTTATACG | 1.36 ± 0.51 |
| GCCTAATTTT | 0.984 ± 0.021 |
| TAAAACCTGA | 1.17 ± 0.054 |
| GTTGTGGTTG | 0.987 ± 0.035 |
| GGGGTTTTGC | 0.985 ± 0.017 |

| Sequence | switch fluorescence ratio |
| --- | --- |
| AAGGAGGTTT | 1.01 ± 0.031 |
| GGTTGCTGTC | 0.964 ± 0.045 |
| ATTTTTGGGG | 1.006 ± 0.0088 |
| TTTATGGGTT | 0.985 ± 0.018 |
| GGGCATCATG | 1.04 ± 0.011 |
| TGTTTCTGGG | 0.999 ± 0.05 |
| TACCGGGGGC | 1.14 ± 0.09 |
| CAGTGACAGT | 1.028 ± 0.0014 |
| GGGTTGCCAG | 0.997 ± 0.025 |
| TTAAAGTAGG | 0.992 ± 0.015 |
| TTTATTTAGG | 1.04 ± 0.011 |
| TTGATTTTTA | 0.99 ± 0.044 |
| TTTACTAATA | 1.02 ± 0.014 |
| TGCGATAGAA | 0.994 ± 0.043 |
| ATGGGTGGGT | 0.994 ± 0.034 |
| TTGTGTCAGT | 0.9885 ± 0.0045 |
| GATTTGATGG | 0.987 ± 0.045 |
| AAAGCTCGTG | 1 ± 0.015 |
| TTGAGGTC | 1 ± 0.029 |
| TGGTTACCCC | 1.001 ± 0.01 |
| GGCTATTATT | 0.985 ± 0.025 |
| GTTTGTGGTG | 1.01 ± 0.017 |
| CAGAGTCGGT | 1 ± 0.024 |
